{"source": "patent US20080038748", "tested_on": "human recombinant LAP β1 (R&D), not treated with protease", "sequence (chain, as listed by the source)": "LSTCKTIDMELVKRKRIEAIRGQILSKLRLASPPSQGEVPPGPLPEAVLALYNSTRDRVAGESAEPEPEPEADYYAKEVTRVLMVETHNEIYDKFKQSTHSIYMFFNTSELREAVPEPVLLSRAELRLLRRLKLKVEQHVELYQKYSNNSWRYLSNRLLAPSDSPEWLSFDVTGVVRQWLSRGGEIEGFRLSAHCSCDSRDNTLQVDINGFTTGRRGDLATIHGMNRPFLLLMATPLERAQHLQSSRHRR"}
{"substance": "human recombinant matrix metalloprotease 3 (MMP3) (Alexis)", "values": [{"measurement": "limited degradation; cleavage site by N-terminal sequencing of the fragments", "value": "MMP3 specifically cleaves between 79 Ala and 80 Leu thereof"}]}
{"substance": "human plasma kallikrein (Sigma)", "values": [{"measurement": "limited degradation; cleavage site by N-terminal sequencing of the fragments", "value": "plasma kallikrein specifically cleaves between 58 Arg and 59 Leu thereof"}]}
